# Measured values: PMC10462243 (Research Square, 2023)
# B1: Vpr (insect cells, co-expressed with VprBP WD40-AR) (natural protein)
# chain: MEQAPEDQGPQREPYNEWTLELLEELKSEAVRHFPRIWLHNLGQHIYETYGDTWAGVEAIIRILQQLLFIHFRIGCRHSRIGVTRQRRARNGASRS
# notes: HIV-1 Vpr ORF, expressed on its own from a p10 promoter in the dual construct; also called 11-kDa Vpr; source: Tni-FNL insect cells, co-expressed with His-MBP-TEV-VprBP, purified (HisTrap, SEC)
# B2: Plk4 CPB(581–808), purified (domain or fragment, UniProt O00444 581-808, looked up)
# chain: GYQNRTLRSITSPLVAHRLKPIRQKTKKAVVSILDSEEVCVELVKEYASQEYVKEVLQISSDGNTITIYYPNGGRGFPLADRPPSPTDNISRYSFDNLPEKYWRKYQYASRFVQLVRSKSPKITYFTRYAKCILMENSPGADFEVWFYDGVKIHKTEDFIQVIEKTGKSYTLKSESEVNSLKEEIKMYMDHANEGHRICLALESIISEEERKTRSAPFFPIIIGRKPG
# notes: Plk4 cryptic polo-box, residues 581–808; Two copies for each Vpr•VprBP in the SEC complex; The construct has a TEV site
# How the values were obtained:
# Assay in all cases: SEC; purified Vpr, VprBP(1057–1507), Plk4 CPB(581–808) and DDB1; HisTrap eluate of VprBP and Vpr digested with TEV, mixed with Plk4 CPB; SEC in 20 mM Tris-HCl pH 7.5, 100 mM NaCl, 10% glycerol; stoichiometry estimated from Coomassie-stained protein intensity
# [1] = biological target: B2; conditions: both partners purified
# [2] = biological target: T1, Vpr•VprBP WD40-AR complex ( | HIV-1 (pNL4–3), UniProt Q9Y4B6;P12520); conditions: both partners purified
# T1 construct: VprBP (DCAF1) WD40 domain and acidic region; HIV-1 Vpr ORF; Chains as m38 and m37, formed by co-expression before Plk4 CPB was added; also called VprBP (WD40-AR)•Vpr complex; source: Tni-FNL insect cells, co-expressed, purified (HisTrap, TEV); not shown: His, N-terminal, cleaved; MBP, N-terminal, cleaved; copies: 1 + 1
# T1 sequence (Q9Y4B6 1057-1507, one chain of several): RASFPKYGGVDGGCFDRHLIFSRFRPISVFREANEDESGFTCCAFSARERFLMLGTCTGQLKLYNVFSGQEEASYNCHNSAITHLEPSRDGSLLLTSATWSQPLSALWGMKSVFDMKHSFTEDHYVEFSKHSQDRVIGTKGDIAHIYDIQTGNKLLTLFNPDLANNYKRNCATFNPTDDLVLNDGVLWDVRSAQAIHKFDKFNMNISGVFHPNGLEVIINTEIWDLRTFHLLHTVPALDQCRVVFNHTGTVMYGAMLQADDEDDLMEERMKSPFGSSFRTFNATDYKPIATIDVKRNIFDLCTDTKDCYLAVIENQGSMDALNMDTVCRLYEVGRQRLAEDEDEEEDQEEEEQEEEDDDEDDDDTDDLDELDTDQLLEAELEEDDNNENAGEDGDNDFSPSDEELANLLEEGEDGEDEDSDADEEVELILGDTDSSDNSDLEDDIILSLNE
# [3] = biological target: the molecule itself
Binder,binding result [1],stoichiometry N [2],binding result [3]
B1,binds,,
B2,,~2,binds
